From publication doi:10.1101/736868 (bioRxiv, 2019)

Target: the molecule itself
Experiment: SEC-MALS; SEC-MALLS, S-200 Superdex 10/300, 0.5 ml/min, 1x PBS (legend: TBS), protein at 33 µM; monomer and dimer

B1: purified recombinant mouse CAVII protein (mCAVII) (enzyme, UniProt Q9ERQ8 1-264, looked up)
chain: MTGHHCWGYGQDDGPSNWHKLYPIAQGDRQSPINIISSQAVYSPSLQPLELFYEACMSLSITNNGHSVQVDFNDSDDRTVVSGGPLEGPYRLKQLHFHWGKKRDMGSEHTVDGKSFPSELHLVHWNAKKYSTFGEAAAAPDGLAVVGVFLETGDEHPSMNRLTDALYMVRFKDTKAQFSCFNPKCLLPTSRHYWTYPGSLTTPPLSESVTWIVLREPIRISERQMEKFRSLLFTSEDDERIHMVDNFRPPQPLKGRVVKASFQA
notes: carbonic anhydrase VII, mouse; theoretical size of the monomer printed as 30.5 kDa; also called carbonic anhydrase VII; source: CHOEBNALT85 cell line, produced as a secreted protein, purified
stoichiometry N: 2
